{"source": "patent US20240139242A1", "biological_target": "OT-I T cell receptor on OTi target T cells (splenocytes from OT-I mouse) (mouse)", "assay": "cell-based or functional assay", "data": [{"substance": "FITC-conjugated H2Kb-SIINFEKL tetramer (from UniProt P01901 22-305) (peptide-MHC)", "values": [{"measurement": "cytotoxicity of CD8 CAR T cells on OTi cells", "result": "> 50", "unit": "%"}]}]}
